Results taken from patent US7482138 (TRUSTEES OF COLUMBIA UNIVERSITY IN THE CITY OF NEW YORK, dated 2009).

Biological target: Rac1V12, pre-loaded with [γ-32P] GTP (UniProt P63000 1-192)
Assay: overlay assay, immobilised Myc-tagged kinase probed with [γ-32P] GTP-loaded GTPase
Excerpt: PAK4 and PAK5 interact with activated Rac and Cdc42. 293 cells were transfected with equal amounts of expression vectors, encoding the following Myc-tagged proteins: wild type PAK4 (Myc-PAK4), wild type PAK5 (Myc-PAK5), or PAK5ΔGBD. After transient expression, the Myc-tagged proteins were immunoprecipitated from whole cell lysates using a mouse anti-Myc antibody and protein A sepharose. The immunocomplexes were separated by SDS-PAGE and transferred to a PVDF membrane. The membranes were then probed with purified RhoV14, Rac1V12 or Cdc42V12, as indicated. The GTPases were pre-loaded with [γ-^32P] GTP as described in the Materials and Methods. A portion of the lysate was used for Western blot analysis (WB) with an anti-Myc antibody to measure the amount of each transfected protein in the lysates.
The overlay assay is described in (27). Briefly, 293 cells were transfected with 10 µg of empty vector, MycPAK4, or Myc-PAK5. PAK4 and PAK5 were then immunopurified using anti-Myc antibody (9E10, Santa Cruz) and the immunopurified proteins were separated on SDS-PAGE and transferred to a PVDF membrane. The membrane was then washed and blocked with phosphate-buffered saline (PBS) containing 1% bovine serum albumin (BSA) and 100 mM dithiothreitol (DTT). Recombinant GTPases (2 µg) were pre-loaded with [γ-^32P] GTP and were incubated for 5 min with the PVDF membrane. […]

- binding result: binds
B1: Myc-tagged wild type PAK5 (human p21-activated kinase 5) (enzyme, not shown: small tags and cut ends)
chain: MFGKKKKKIEISGPSNFEHRVHTGFDPQEQKFTGLPQQWHSLLADTANRPKPMVDPSCITPIQLAPMKTIVRGNKPCKETSINGLLEDFDNISVTRSNSLRKESPPTPDQGASSHGPGHAEENGFITFSQYSSESDTTADYTTEKYREKSLYGDDLDPYYRGSHAAKQNGHVMKMKHGEAYYSEVKPLKSDFARFSADYHSHLDSLSKPSEYSDLKWEYQRASSSSPLDYSFQFTPSRTAGTSGCSKESLAYSESEWGPSLDDYDRRPKSSYLNQTSPQPTMRQRSRSGSGLQEPMMPFGASAFKTHPQGHSYNSYTYPRLSEPTMCIPKVDYDRAQMVLSPPLSGSDTYPRGPAKLPQSQSKSGYSSSSHQYPSGYHKATLYHHPSLQSSSQYISTASYLSSLSLSSSTYPPPSWGSSSDQQPSRVSHEQFRAALQLVVSPGDPREYLANFIKIGEGSTGIVCIATEKHTGKQVAVKKMDLRKQQRRELLFNEVVIMRDYHHDNVVDMYSSYLVGDELWVVMEFLEGGALTDIVTHTRMNEEQIATVCLSVLRALSYLHNQGVIHRDIKSDSILLTSDGRIKLSDFGFCAQVSKEVPKRKSLVGTPYWMAPEVISRLPYGTEVDIWSLGIMVIEMIDGEPPYFNEPPLQAMRRIRDSLPPRVKDLHKVSSVLRGFLDLMLVREPSQRATAQELLGHPFLKLAGPPSCIVPLMRQYRHH
notes: also called Myc-PAK5
